B1: PPEF2 (parent)
chain: DHSGFISLDEFRQTWKLFSSHMNI

Variants of: B1
Assay: protein stability index of a GFP-peptide fusion (GPS, HEK-293T) (PSI 1-6); higher = more stable
Conditions: c terminus: a fixed tail appended
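Further: lentivirally expressed fusions sorted by FACS into six bins by GFP to DsRed ratio, PSI derived from sequencing read proportions per bin multiplied by bin number.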

Variant	protein stability index
DHSGFISLDEFRQTTKLFSSHMNI [W15T]	2.58
DHSGFISLDEFRQTAKLFSSHMNI [W15A]	1.67
DHSGFISLDEFRQTYKLFSSHMNI [W15Y]	2.15
DHSGFISLDEFRQTFKLFSSHMNI [W15F]	2.07
DHSGFISLDEFRQTHKLFSSHMNI [W15H]	1.76
DHSGFISLDEFRQTQKLFSSHMNI [W15Q]	2.25
DHSGFISLDEFRQTGKLFSSHMNI [W15G]	1.84
DHSGFISLDEFRQTNKLFSSHMNI [W15N]	2.06
DHSGFISLDEFRQTDKLFSSHMNI [W15D]	2.3
DHSGFISLDEFRQTPKLFSSHMNI [W15P]	1.81
DHSGFISLDEFRQTMKLFSSHMNI [W15M]	2.79
DHSGFISLDEFRQTLKLFSSHMNI [W15L]	1.88
DHSGFISLDEFRQTCKLFSSHMNI [W15C]	2.39
DHSGFISLDEFRQTKKLFSSHMNI [W15K]	2.36
DHSGFISLDEFRQTVKLFSSHMNI [W15V]	2.1
DHSGFISLDEFRQTRKLFSSHMNI [W15R]	1.62
DHSGFISLDEFRQTIKLFSSHMNI [W15I]	1.77
DHSGFISLDEFRQTSKLFSSHMNI [W15S]	1.81
DHSGFISLDEFRQTEKLFSSHMNI [W15E]	1.96
DHSGFISLDEFRQTWKLFSSHMGI [N23G]	1.73
DHSGFISLDEFRQTWKLFSSHMEI [N23E]	2.82
DHSGFISLDEFRQTWKLFSSHMPI [N23P]	1.84
DHSGFISLDEFRQTWKLFSSHMII [N23I]	2.18
DHSGFISLDEFRQTWKLFSSHMRI [N23R]	1.31

Variant	protein stability index
DHSGFISLDEFRQTWKLFSSHMMI [N23M]	2.57
DHSGFISLDEFRQTWKLFSSHMSI [N23S]	2.26
DHSGFISLDEFRQTWKLFSSHMCI [N23C]	2.72
DHSGFISLDEFRQTWKLFSSHMYI [N23Y]	2.57
DHSGFISLDEFRQTWKLFSSHMDI [N23D]	1.69
DHSGFISLDEFRQTWKLFSSHMFI [N23F]	3.35
DHSGFISLDEFRQTWKLFSSHMKI [N23K]	1.96
DHSGFISLDEFRQTWKLFSSHMTI [N23T]	2.83
DHSGFISLDEFRQTWKLFSSHMQI [N23Q]	1.86
DHSGFISLDEFRQTWKLFSSHMWI [N23W]	2.08
DHSGFISLDEFRQTWKLFSSHMLI [N23L]	2.3
DHSGFISLDEFRQTWKLFSSHMVI [N23V]	3.85
DHSGFISLDEFRQTWKLFSSHMHI [N23H]	2.16
DHSGFISLDEFRQMWKLFSSHMNI [T14M]	1.85
DHSGFISLDEFRQIWKLFSSHMNI [T14I]	1.83
DHSGFISLDEFRQLWKLFSSHMNI [T14L]	1.66
DHSGFISLDEFRQWWKLFSSHMNI [T14W]	1.39
DHSGFISLDEFRQPWKLFSSHMNI [T14P]	2.17
DHSGFISLDEFRQNWKLFSSHMNI [T14N]	1.91
DHSGFISLDEFRQYWKLFSSHMNI [T14Y]	1.49
DHSGFISLDEFRQKWKLFSSHMNI [T14K]	1.93
DHSGFISLDEFRQHWKLFSSHMNI [T14H]	2
DHSGFISLDEFRQVWKLFSSHMNI [T14V]	1.93
DHSGFISLDEFRQSWKLFSSHMNI [T14S]	2.14

Variant	protein stability index
DHSGFISLDEFRQRWKLFSSHMNI [T14R]	2.38
DHSGFISLDEFRQQWKLFSSHMNI [T14Q]	2.08
DHSGFISLDEFRQTWNLFSSHMNI [K16N]	1.69
DHSGFISLDEFRQTWALFSSHMNI [K16A]	1.88
DHSGFISLDEFRQTWRLFSSHMNI [K16R]	2.02
DHSGFISLDEFRQTWYLFSSHMNI [K16Y]	3.45
DHSGFISLDEFRQTWELFSSHMNI [K16E]	1.73
DHSGFISLDEFRQTWCLFSSHMNI [K16C]	2.15
DHSGFISLDEFRQTWMLFSSHMNI [K16M]	1.01
DHSGFISLDEFRQTWQLFSSHMNI [K16Q]	1.74
DHSGFISLDEFRQTWSLFSSHMNI [K16S]	1.81
DHSGFISLDEFRQTWLLFSSHMNI [K16L]	3.93
DHSGFISLDEFRQTWFLFSSHMNI [K16F]	1.94
DHSGFISLDEFRQTWVLFSSHMNI [K16V]	2.6
DHSGFISLDEFRQTWTLFSSHMNI [K16T]	3.38
DHSGFISLDEFRQTWPLFSSHMNI [K16P]	2.07
DHSGFISLDEFRQTWWLFSSHMNI [K16W]	3.62
DHSGFISLDEFRQTWDLFSSHMNI [K16D]	1.71
DHSGFISLDEFRQTWGLFSSHMNI [K16G]	1.32
DHSGFISLDEFRQTWHLFSSHMNI [K16H]	1.74
DHSGFISLDEFRQTWILFSSHMNI [K16I]	3.37
DHSGFISLDEFRQTWKLFSSFMNI [H21F]	2.27
DHSGFISLDEFRQTWKLFSSCMNI [H21C]	2.9
DHSGFISLDEFRQTWKLFSSEMNI [H21E]	2.06

Variant	protein stability index
DHSGFISLDEFRQTWKLFSSAMNI [H21A]	1.63
DHSGFISLDEFRQTWKLFSSMMNI [H21M]	1.49
DHSGFISLDEFRQTWKLFSSYMNI [H21Y]	1.49
DHSGFISLDEFRQTWKLFSSPMNI [H21P]	2.11
DHSGFISLDEFRQTWKLFSSSMNI [H21S]	1.86
DHSGFISLDEFRQTWKLFSSKMNI [H21K]	1.63
DHSGFISLDEFRQTWKLFSSWMNI [H21W]	2.02
DHSGFISLDEFRQTWKLFSSLMNI [H21L]	1.74
DHSGFISLDEFRQTWKLFSSQMNI [H21Q]	1.06
DHSGFISLDEFRQTWKLFSSVMNI [H21V]	2.84
DHSGFISLDEFRQTWKLFSSDMNI [H21D]	1.91
DHSGFISLDEFRQTWKLFSSIMNI [H21I]	2.54
DHSGFISLDEFRQTWKLFSSNMNI [H21N]	2.01
DHSGFISLDEFRQTWKLFSSGMNI [H21G]	2.22
DHSGFISLDEFRQTWKLFSSTMNI [H21T]	2.09
DHSGFISLDEFRQTWKLFSSRMNI [H21R]	2.23
DHSGFISLDEFRQTWKPFSSHMNI [L17P]	1.55
DHSGFISLDEFRQTWKTFSSHMNI [L17T]	1.88
DHSGFISLDEFRQTWKCFSSHMNI [L17C]	1.59
DHSGFISLDEFRQTWKVFSSHMNI [L17V]	1.36
DHSGFISLDEFRQTWKQFSSHMNI [L17Q]	1.58
DHSGFISLDEFRQTWKSFSSHMNI [L17S]	2
DHSGFISLDEFRQTWKDFSSHMNI [L17D]	2.27
DHSGFISLDEFRQTWKGFSSHMNI [L17G]	1.5

Variant	protein stability index
DHSGFISLDEFRQTWKNFSSHMNI [L17N]	1.87
DHSGFISLDEFRQTWKAFSSHMNI [L17A]	2.07
DHSGFISLDEFRQTWKYFSSHMNI [L17Y]	2.03
DHSGFISLDEFRQTWKFFSSHMNI [L17F]	3.02
DHSGFISLDEFRQTWKRFSSHMNI [L17R]	1.62
DHSGFISLDEFRQTWKHFSSHMNI [L17H]	1.66
DHSGFISLDEFRQTWKWFSSHMNI [L17W]	1.29
DHSGFISLDEFRQTWKMFSSHMNI [L17M]	2.63
DHSGFISLDEFRQTWKKFSSHMNI [L17K]	1.81
DHSGFISLDEFRQTWKIFSSHMNI [L17I]	3.24
DHSGFISLDEFRQTWKEFSSHMNI [L17E]	2.11
DHSGFISLDEFRQTWKLFHSHMNI [S19H]	1.88
DHSGFISLDEFRQTWKLFKSHMNI [S19K]	1.85
DHSGFISLDEFRQTWKLFMSHMNI [S19M]	1.78
DHSGFISLDEFRQTWKLFESHMNI [S19E]	1.3
DHSGFISLDEFRQTWKLFRSHMNI [S19R]	1.7
DHSGFISLDEFRQTWKLFTSHMNI [S19T]	2.55
DHSGFISLDEFRQTWKLFVSHMNI [S19V]	2.26
DHSGFISLDEFRQTWKLFASHMNI [S19A]	1.56
DHSGFISLDEFRQTWKLFDSHMNI [S19D]	1.56
DHSGFISLDEFRQTWKLFWSHMNI [S19W]	1.87
DHSGFISLDEFRQTWKLFPSHMNI [S19P]	1.82
DHSGFISLDEFRQTWKLFLSHMNI [S19L]	1.46
DHSGFISLDEFRQTWKLFNSHMNI [S19N]	1.07

Variant	protein stability index
DHSGFISLDEFRQTWKLFGSHMNI [S19G]	1.81
DHSGFISLDEFRQTWKLFYSHMNI [S19Y]	1.7
DHSGFISLDEFRQTWKLFFSHMNI [S19F]	2.32
DHSGFISLDEFRQTWKLFQSHMNI [S19Q]	2.02
DHSGFISLDEFRQTWKLFCSHMNI [S19C]	1.54
DHSGFISLDEFRQTWKLFISHMNI [S19I]	2.22
DHSGFISLDEFRQTWKLGSSHMNI [F18G]	2.48
DHSGFISLDEFRQTWKLNSSHMNI [F18N]	2.12
DHSGFISLDEFRQTWKLHSSHMNI [F18H]	1.55
DHSGFISLDEFRQTWKLESSHMNI [F18E]	1.88
DHSGFISLDEFRQTWKLQSSHMNI [F18Q]	1.72
DHSGFISLDEFRQTWKLSSSHMNI [F18S]	2.14
DHSGFISLDEFRQTWKLISSHMNI [F18I]	2.51
DHSGFISLDEFRQTWKLTSSHMNI [F18T]	1.82
DHSGFISLDEFRQTWKLYSSHMNI [F18Y]	2.56
DHSGFISLDEFRQTWKLCSSHMNI [F18C]	2.02
DHSGFISLDEFRQTWKLASSHMNI [F18A]	1.96
DHSGFISLDEFRQTWKLMSSHMNI [F18M]	1.64
DHSGFISLDEFRQTWKLLSSHMNI [F18L]	1.46
DHSGFISLDEFRQTWKLKSSHMNI [F18K]	2.21
DHSGFISLDEFRQTWKLWSSHMNI [F18W]	1.87
DHSGFISLDEFRQTWKLPSSHMNI [F18P]	1.96
DHSGFISLDEFRQTWKLVSSHMNI [F18V]	1.91
DHSGFISLDEFRQTWKLRSSHMNI [F18R]	1.8

Variant	protein stability index
DHSGFISLDEFRQTWKLDSSHMNI [F18D]	2.57
DHSGFISLDEFRQTWKLFSSHLNI [M22L]	1.79
DHSGFISLDEFRQTWKLFSSHTNI [M22T]	1.6
DHSGFISLDEFRQTWKLFSSHENI [M22E]	2.19
DHSGFISLDEFRQTWKLFSSHGNI [M22G]	2.17
DHSGFISLDEFRQTWKLFSSHNNI [M22N]	1.62
DHSGFISLDEFRQTWKLFSSHSNI [M22S]	1.55
DHSGFISLDEFRQTWKLFSSHPNI [M22P]	2.6
DHSGFISLDEFRQTWKLFSSHYNI [M22Y]	2.21
DHSGFISLDEFRQTWKLFSSHHNI [M22H]	1.61
DHSGFISLDEFRQTWKLFSSHDNI [M22D]	2.41
DHSGFISLDEFRQTWKLFSSHVNI [M22V]	1.51
DHSGFISLDEFRQTWKLFSSHANI [M22A]	1.88
DHSGFISLDEFRQTWKLFSSHCNI [M22C]	2.98
DHSGFISLDEFRQTWKLFSSHRNI [M22R]	1.91
DHSGFISLDEFRQTWKLFSSHKNI [M22K]	2.1
DHSGFISLDEFRQTWKLFSSHFNI [M22F]	2.32
DHSGFISLDEFRQTWKLFSSHINI [M22I]	2.02
DHSGFISLDEFRQTWKLFSSHWNI [M22W]	2.49
DHSGFISLDEFRQTWKLFSSHQNI [M22Q]	1.88
DHSGFISLDEFRQTWKLFSFHMNI [S20F]	2.44
DHSGFISLDEFRQTWKLFSPHMNI [S20P]	1.96
DHSGFISLDEFRQTWKLFSTHMNI [S20T]	1.85
DHSGFISLDEFRQTWKLFSLHMNI [S20L]	2.03

Variant	protein stability index
DHSGFISLDEFRQTWKLFSGHMNI [S20G]	2.92
DHSGFISLDEFRQTWKLFSDHMNI [S20D]	2.15
DHSGFISLDEFRQTWKLFSMHMNI [S20M]	2.81
DHSGFISLDEFRQTWKLFSWHMNI [S20W]	3.78
DHSGFISLDEFRQTWKLFSNHMNI [S20N]	1.71
DHSGFISLDEFRQTWKLFSIHMNI [S20I]	2.75
DHSGFISLDEFRQTWKLFSEHMNI [S20E]	2.43
DHSGFISLDEFRQTWKLFSRHMNI [S20R]	2.16
DHSGFISLDEFRQTWKLFSKHMNI [S20K]	1.81
DHSGFISLDEFRQTWKLFSVHMNI [S20V]	3
DHSGFISLDEFRQTWKLFSYHMNI [S20Y]	2.47
DHSGFISLDEFRQTWKLFSAHMNI [S20A]	2.14
DHSGFISLDEFRQTWKLFSQHMNI [S20Q]	1.83
DHSGFISLDEFRQTWKLFSHHMNI [S20H]	1.63
DHSGFISLDEFRQTWKLFSSHMNE [I24E]	1.99
DHSGFISLDEFRQTWKLFSSHMND [I24D]	1.96
DHSGFISLDEFRQTWKLFSSHMNF [I24F]	1.9
DHSGFISLDEFRQTWKLFSSHMNG [I24G]	1.98
DHSGFISLDEFRQTWKLFSSHMNA [I24A]	1.96
DHSGFISLDEFRQTWKLFSSHMNC [I24C]	1.55

— the supplement of paper PMC10567573
